The target in this experiment is T1, full length human FGF23 protein (amino acid 25 to amino acid 251 of SEQ ID NO: 4) (human, UniProt Q9GZV9 25-251).
T1 construct: also called full length FGF23; human full length FGF23 protein
T1 sequence: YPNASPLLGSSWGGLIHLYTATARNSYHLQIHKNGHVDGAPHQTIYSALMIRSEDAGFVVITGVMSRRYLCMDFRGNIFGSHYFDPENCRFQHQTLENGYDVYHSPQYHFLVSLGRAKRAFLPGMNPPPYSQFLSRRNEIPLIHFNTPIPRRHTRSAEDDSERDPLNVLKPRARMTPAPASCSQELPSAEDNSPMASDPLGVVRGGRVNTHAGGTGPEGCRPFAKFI
Briefly: ELISA screening of hybridoma supernatants.

B1: C10 antibody (anti-FGF23 human monoclonal antibody produced by hybridoma C10, FERM BP-10772) (antibody, human IgG1, V domains shown)
VH: QVQLVQSGAEVKKPGASVKVSCKASGYTFTNHYMHWVRQAPGQGLEWMGIINPISGSTSNAQKFQGRVTMTRDTSTSTVYMELSSLRSEDTAVYYCARDIVDAFDFWGQGTMVTVSS
VL: AIQLTQSPSSLSASVGDRVTITCRASQGISSALVWYQQKPGKAPKLLIYDASSLESGVPSRFSGSGSGTDFTLTISSLQPEDFATYYCQQFNDYFTFGPGTKVDIK
notes: also called recombinant C10 antibody
In the case of B1, the binding result is given as “binds”.

The values are drawn from patent publication US20090148461A1 (Kyowa Kirin, published 2009).
